Where two headings read alike, the source gives them in different places.
B1: Recombinant Sc-KU-4 (BPTI-Kunitz family serine protease inhibitor of Steinernema carpocapsae) (natural protein)
chain: FPLFEFNCSALKDSGSGSNVTRQFYFDPDWNTCLAFNYNGTGGNTNRFETKEDCELLCVPAGSTCKGPSKTVVQPLKEAFRCDDSVCPSTHKCLMGMVPVCCDKENQEAFNQAVADTCPDGTKADGIFDLYFRAVYAHSCEDLICDENHKCVQVNKHFAKCCSKE
notes: not shown: His6, C-terminal, kept

How the values were obtained:
Assay in all cases: enzyme inhibition kinetics (Dixon plot)
[1] = biological target: α-chymotrypsin from bovine pancreas (bovine)
[2] = biological target: α-chymotrypsin from bovine pancreas (bovine); remark: listed apart in the source
[3] = biological target: elastase from bovine pancreas (bovine, UniProt Q28153 27-266); details: both partners purified
elastase from bovine pancreas, sequence (Q28153 27-266): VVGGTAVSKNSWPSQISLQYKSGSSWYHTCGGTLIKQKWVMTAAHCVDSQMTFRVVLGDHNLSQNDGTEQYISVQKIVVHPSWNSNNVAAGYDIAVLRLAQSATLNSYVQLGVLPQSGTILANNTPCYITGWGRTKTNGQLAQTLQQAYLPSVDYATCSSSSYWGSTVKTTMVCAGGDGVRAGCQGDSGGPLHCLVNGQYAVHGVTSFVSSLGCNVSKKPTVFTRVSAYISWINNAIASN

Molecule	Ki [1] [nM]	Ki [2] [nM]	Ki [3] [nM]
Recombinant Sc-KU-4 (BPTI-Kunitz family serine protease inhibitor of Steinernema carpocapsae) (from UniProt E2IPQ6) (natural protein)	1.8	2.6	
B1			2.6

Reference: paper PMC3787073 (PLoS ONE, 2013)
